Assay: soluble on expression in E. coli; label from the status in PepcDB or PDB records

| Sequence | soluble on expression in E. coli |
| --- | --- |
| MAKNRFVRDVRLIASTSGDPIDAGQNGELLKSLYYQIAVHCIVLPPLRERKEDILPLAIHFIRQGNERYGLHVEGLGDDVQEAFLAYSWPGNVRELEAVILETMATMEQEQTITLAHLPAPFRAKLAPDETKTDFLFDTEDILPLDKYMEEVEIYYIRKALQHHGFNITKTAKALGLSRQNLQYRIRKYQIDKEWG | not soluble |
| MAKQIKGIAASDGVAIAKAYLLVEPDLSFDNESVTDTDAEVAKFNGALNKSKVELTKIRNNAEKQLGADKAAIFDAHLLVLEDPELIQPIEDKIKNESVNAAQALTDVSNQFITIFESMDNEYMAERAADIRDVSKRVLAHILGVELPNPSIVDESVVIIGNDLTPSDTAQLNKEYVQGFVTNIGGRTSHSAIMSRSLEIPAVVGTKSITEEVEAGDTIVVDGMTGDVLINPSDEVIAEYQEKRENFFKDKQELQKLRDAESVTADGHHVELAANIGTPNDLPGVIENGAEGIGLYRTEFLYMGRDQMPTEEEQFEAYKAVLEAMKGKRVVVRTLDIGGDKELPYLDLPEEMNPFLGYRAIRLCLDQPEIFRPQLRALLRASVFGKLNIMFPMVATIQEFRDAKALLEEERANLKNEGYEVADDIELGIMVEIPSTAALADIFAKEVDFFSIGTNDLIQYTMAADRMSERVSYLYQPYNPAILRLVKQVIEASHAEGKWTGMCGEMAGDQTAIPLLLGLGLDEFSMSATSILKARRLIRSLNESEMKELSERAVQCATSEEVVDLVEEYTKNA | soluble |
| MAKRPTETERCIESLIAIFQKHAGRDGNNTKISKTEFLIFMNTELAAFTQNQKDPGVLDRMMKKLDLDSDGQLDFQEFLNLIGGLAIACHDSFIKSTQK | soluble |
| MAKTIRDESTASAYWAAVNTFCALKDVHVIADAPVGCYNLAGVAVMDYTDAIPYLENLTPTSLTEREISSSGSSQIVQETIEKLMGSGKQLILVSSAESEMIGSDHQHMLAMKYPSVRFFASDSLGENEWQGRDRALAWLFDQFDDGQPSQIEPGTVSIIGPTYGCFNSPADLAEVKRLVTGAGGRVAHVYPFESKAAEITKLKNSAAIVVMYREFGAALAEKLGRPVLYAPFGIEETDRFIGKIGRLCGTPEQATRFIAEEKRTTLSPVWDLWRGPQSEWFPTIRFGVVASKSYADGIKHVLGDELGMQCLFSLDSAEVDNNAVRKEIVQKQPQFLYGRMPDKIYLAEADAKSRFIPAGFPGPIVRRALGTPFMGHSGVVWLVQEIVNALYDTLFNFLPITRRQQAAAPTKPLKWTPEANAILDGIVRKAPFISQISFGRELKRKAENLAASRGADTVTPDILQQLG | soluble |
| MAKTLGLHILADLYGVDADKIDRVEDIRELLEGAVKYANLTKISSHYYQFQPHGATGVVLLAESHISIHTWPEHGLATVDVYTCGDPSKAYRAMDYIITQLNPKRIDKQVHERGIVEEESNQSEAEKLRSILLQV | soluble |
| MAKYTEWLTEEGLIKIEGWARDGLIDKQIAQNIGVAYSTFREWVKKFPALSASLKKGKEVVDRQVENALFKSATGYEYTEVTEELTENGMEITKKVKKQVAPNPTAAIFWLKNRKPDEWRDRKETEVSGVLNISDAAVEIEQFFEDDST | not soluble |
| MALAHVSRRVISNQIRCFAAANQETSLVHVEKQFEAIEPEKRDKDAFMAAIATFKEKRGRTHVEFINTALKYVKEYGVHKDIDTYKGLLEVFPKGKMIPQTVFQKVFLHYPQQQNCAVKVLDEMEWHGVQPDKEIHDIVVNAFGEWNFATKKVKRMLYWMPKLKHSNKYLDRRHVEGKSLSPSELAGIALKMMSRDAASSISLLKLSDSSDPQQKWLATSQSPMQQILISELRKGDEVFVDAAKVYLQDRVIPFITLTGNTKLEPLNEFKNEDMDEDYTNWYADWQKQRGEAKRSIHEQDHETIFAMGAMYKDDNATAIRWIDNLQKTNPNMENLRFRVRLEGNPIISRK | not soluble |

Source: the DeepSol protein solubility set
